Assays:
Details in all cases: EMSA: 40 mM Tris-HCl pH 8, 100 mM KCl, 0.5 mM DTT, 0.05% NP40, 2 mM spermidine, 0.2 mM EDTA, 8% glycerol, 15 ng/ul herring sperm DNA, 30 min room temperature …
[1] = system: T1, 6His-SUMO-RegA (Acidithiobacillus ferrooxidans ATCC 23270T), ORF:158a6978; experiment: EMSA
T1 sequence: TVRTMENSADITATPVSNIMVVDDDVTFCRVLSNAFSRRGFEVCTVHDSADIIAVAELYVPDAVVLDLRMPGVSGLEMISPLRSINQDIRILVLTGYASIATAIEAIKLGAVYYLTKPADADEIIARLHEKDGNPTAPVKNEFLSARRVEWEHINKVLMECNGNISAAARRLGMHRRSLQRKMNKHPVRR

[2] = system: T2, RegA-HTH-6His (Acidithiobacillus ferrooxidans ATCC 23270T), ORF:158a6978; experiment: EMSA
T2 sequence: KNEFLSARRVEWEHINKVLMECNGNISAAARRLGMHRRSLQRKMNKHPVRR

[3] = system: T1, 6His-SUMO-RegA (Acidithiobacillus ferrooxidans ATCC 23270T), ORF:158a6978; experiment: DLS

Sequence	binding [1]	binding [2]	binding [3]
CATTATGCGGCTGGCACAATACATGCATAAAACATCTCGTGCTGCCGCGGGATTCTCATTTTCATTTACTCATTGAATATCATAAGCGGGATGCAGCCATAAATATAACGCTGGTTGTGTTATTGGGAGCGAGCATTTAATTCTGTTGATATCGTTTATGGGAATAACAAAAGTGGAGACGCAGCTGAAAAAGCGAAGCTGATGACAGAGTACGTTATACCTCACCAAATGGATTGGAGACTTGATATGCC (double strand) [tet 251 bp]	binds	–	–
CCCCAGTCATGAAGCCTACCGTGGTAATCGCCCCCCTTGCGGTTAAGCTAACTACTTCTGGTAAACCCCACTTCCATGGTGTGACGGGCGGTGTG (double strand) [rrs 16S 95 bp]	–	no binding	no binding
TGTCAGTTTTTGGGACATTTTAGTGATCGCGGCATATAATTAAAAGGCCAGATTAACATGTTTAAATAACGTTAGCACATAATTCTTTTCTTATGTTCTTTATTTAAGTTATTGTGTTTTAGTGGATCCGTATCGTGATG (double strand) [rus PI 140 bp]	binds	–	–

From paper PMC5506826
